Source: patent US20240294635A1 (CHIA TAI TIANQING PHARMACEUTICAL GROUP, published 2024)
Changes are numbered by the printed parent chain. In names and notes the source's numbering stands. Read-outs that look alike come from different tables or passages of the source.

B1: Xi2B2 (antibody, human IgG4 S228P, kappa, V domains shown)
VH: EVMLVESGGGLVQPGGSLKLSCAASGFTFSNYYMSWVRQTPEKRLEWVAYISSGGGSTYYPDSVKGRFTISRDNAKNTLYLQMSSLKSEDTAMYYCAWFAYWGQGTLVTVSA
VL: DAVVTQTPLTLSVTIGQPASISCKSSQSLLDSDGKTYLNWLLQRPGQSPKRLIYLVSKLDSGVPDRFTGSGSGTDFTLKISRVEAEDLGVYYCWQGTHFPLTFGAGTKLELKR
notes: mouse variable regions on human IgG4 (EU S228P) and human kappa constant regions; also called chimeric 2B2 antibody
B2: Xi3F10 (antibody, human IgG4 S228P, kappa, V domains shown)
VH: EVQLQQSVAELMKPGASVKIYCKATGYTFSRYWIEWVKQRPGHGLEWIGEFIPGSDTTNFNEKFKGKATFTAEISSNTAYMQLSSLTSEDSAVYFCARGGLRRMDYWGQGTSVTVSS
VL: DIVMTQTPAIMSASPGEKVTMTCRASSSVSSTYLHWYQQKSGASPKLWIYTTSTLASGVPARFSGSGSGTSYSLTISSVEAEDAATYYCQQFSDSTWTFGGGTKLEIKR
notes: mouse variable regions on human IgG4 (EU S228P) and human kappa constant regions; also called chimeric 3F10 antibody
B3: Xi2H8 (antibody, human IgG4 S228P, kappa, V domains shown)
VH: QVQLKESGPGLVAPSQSLSITCTVSGFSLTNYGVHWVRQPPGKGLEWLGIIWAGGSTNYNSALMSRLSISKDNSKSQVFLKMNSLQTDDTAMYYCARDDYASMDYWGQGTSVTVSS
VL: DAFMTQTPLSLPVSLGDQASISCRSSQSLVHSNGNTYLHWYLQKPGQSPKLLIYKVSNRFSGVPDRFSGSGSGTDFTLKISRVEAEDLGVYFCSQSTHVPYTLGGGTKLEIKR
notes: mouse variable regions on human IgG4 (EU S228P) and human kappa constant regions; also called chimeric 2H8 antibody
B4: Xi16E5 (antibody, human IgG4 S228P, kappa, V domains shown)
VH: EVQLQQSGPELKKPGETVKISCKASGYTFTNYGMNWVKQVPGKGLKWMGWINTNTGEPTYAEEFKGRFAFSLETSARTAFLQINNLKNEDTATYFCTRFSHLRGPMDYWGQGASVTVSS
VL: B3 VL with F3V, N35Y, V83L, Y101P, L103F
notes: mouse variable regions on human IgG4 (EU S228P) and human kappa constant regions; also called chimeric 16E5 antibody
B5: Xi14A9 (antibody, human IgG4 S228P, kappa, V domains shown)
VH: EVQLQQSGAEVARPGASVKLSCTVSGFNIEDDYIEWVKQRPEQGLEWIGRIDPANDKTKYAPKFQDKATITGDTSSNTAYLQLSSLTSEDTAVYYCTRPGLRRYYSMDYWGQGTSVTVSS
VL: NIVLTQSPKSMSMSVGERVTLSCKASENVVSYVSWYQQKPEQSPKLLIYGASNRYTGVPDRFIGSGSSTDFTLIISSFQPEDLADYHCGQSYSYPLTFGAGTKLELKR
notes: mouse variable regions on human IgG4 (EU S228P) and human kappa constant regions; also called chimeric 14A9 antibody
B6: hz16E5-3.1 (antibody, human IgG4 S228P, kappa)
heavy: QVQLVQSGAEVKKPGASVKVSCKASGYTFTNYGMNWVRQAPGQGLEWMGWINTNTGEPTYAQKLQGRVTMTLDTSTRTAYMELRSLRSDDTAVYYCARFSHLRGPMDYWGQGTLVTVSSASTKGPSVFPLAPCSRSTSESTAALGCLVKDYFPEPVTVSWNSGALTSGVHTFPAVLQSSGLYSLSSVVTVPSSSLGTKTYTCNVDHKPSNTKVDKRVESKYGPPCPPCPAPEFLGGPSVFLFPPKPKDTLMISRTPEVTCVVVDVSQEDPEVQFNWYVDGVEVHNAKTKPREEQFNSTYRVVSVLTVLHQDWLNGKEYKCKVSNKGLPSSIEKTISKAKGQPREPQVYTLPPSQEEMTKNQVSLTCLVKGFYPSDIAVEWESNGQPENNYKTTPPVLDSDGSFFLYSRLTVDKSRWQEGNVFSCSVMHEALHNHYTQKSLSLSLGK
light: DAQMTQSPSSLSASVGDRVTITCRSSQSLVHSNGYTYLHWYQQKPGKAPKLLIYKVSNRFSGVPSRFSGSGSGTDFTLTISSLQPEDFATYYCSQSTHVPPTFGQGTKLEIKRTVAAPSVFIFPPSDEQLKSGTASVVCLLNNFYPREAKVQWKVDNALQSGNSQESVTEQDSKDSTYSLSSTLTLSKADYEKHKVYACEVTHQGLSSPVTKSFNRGEC
notes: humanized 16E5, full-length heavy and light chains
B7: hz16E5-3.3 (antibody, human IgG4 S228P, kappa)
heavy: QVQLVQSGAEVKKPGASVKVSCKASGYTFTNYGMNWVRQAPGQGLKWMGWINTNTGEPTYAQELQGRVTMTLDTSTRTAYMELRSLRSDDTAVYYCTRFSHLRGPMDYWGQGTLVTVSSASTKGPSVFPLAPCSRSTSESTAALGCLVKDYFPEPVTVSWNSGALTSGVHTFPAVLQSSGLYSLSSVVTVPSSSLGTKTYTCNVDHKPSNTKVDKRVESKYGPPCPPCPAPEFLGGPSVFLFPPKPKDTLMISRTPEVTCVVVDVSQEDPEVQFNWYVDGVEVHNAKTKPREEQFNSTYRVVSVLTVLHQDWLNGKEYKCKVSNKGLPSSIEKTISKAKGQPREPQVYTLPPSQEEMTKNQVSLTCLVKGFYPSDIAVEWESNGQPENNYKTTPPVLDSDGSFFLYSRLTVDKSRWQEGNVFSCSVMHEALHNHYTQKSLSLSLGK
light: B6 light
notes: as for B6

Experiments:
[1] = target: T1, CD47 on the red cell surface (Homo sapiens (Human), UniProt Q08722 19-323); assay: flow cytometry on fixed red cells, antibody 10 µg/mL
Description: (§1) Anticoagulated blood was collected and well mixed with an equal amount of normal saline. The mixture was centrifuged at 2000 rpm/min for 5 min, and the supernatant was removed. […] In the first two washings, the mixture was centrifuged at 2000 rpm/min for 5 min, and in the last washing, the mixture was centrifuged at 2000 rpm/min for 10 min, and the supernatant was removed.

CD47 on HL60 cells [2] = target: T2, CD47 on HL60 cells (UniProt Q08722 19-323, limits assumed); assay: cell-based or functional assay
[3] = target: T1, CD47 on the red cell surface; assay: flow cytometry on fixed red cells, antibody 1 µg/mL
Description: as §1

[4] = target: T3, human CD47 protein, His Tag (ACRObiosystems, Cat. No. CD7-H5227) (human, UniProt Q08722 19-139); assay: ELISA, plate coated with CD47-His
T3 construct: bought reagent; also called CD47-His; hCD47-His Tag; not shown: His tag

[5] = target: T4, human CD47 protein on CHO-K1-CD47 cells (human, UniProt Q08722 19-323); assay: cell binding, CHO-K1-CD47 cells, high content imaging
T4 construct: whole, on cells; also called CHO-K1 cells expressing human CD47 protein
Description: (§2) A cell binding assay of anti-CD47 antibodies (chimeric or humanized) was performed based on the binding to a CHO-K1 cell line stably expressing CD47. CHO-K1-CD47 cells (CHO-K1 cells expressing human CD47 protein) were added to each well of a 96-well plate (Eppendorf, Cat. No. C030730.119) at 1.2×10⁴ cells per well and incubated with anti-CD47 antibodies (20 μg/mL, 1:4 dilution in PBS) at room temperature for 1-2 h. […] The cells were incubated at room temperature for 30 min. The cells were washed three times with PBS buffer. A nuclear dye Hoechst (Sigma, Cat. No. B2261) was diluted with PBS buffer at a dilution ratio of 1:500 and then added to each well at 100 μL/well for staining for 10 min. The cells were washed 3 times with PBS and analyzed using a high content screening system (manufacturer: PerkinElmer; model: Operetta).

[6] = target: T5, cynomolgus/rhesus macaque CD47 protein, His Tag (ACRObiosystems, Cat. No. CD7-C52H1) (cynomolgus monkey (cynomolgus/rhesus …, UniProt A0A2K5X523 19-141)); assay: Biacore SPR, 25 C, antibody captured on CM5 chip
T5 construct: bought reagent; also called Cynomolgus monkey CD47 protein
T5 sequence (A0A2K5X523 entry or part of it limits assumed): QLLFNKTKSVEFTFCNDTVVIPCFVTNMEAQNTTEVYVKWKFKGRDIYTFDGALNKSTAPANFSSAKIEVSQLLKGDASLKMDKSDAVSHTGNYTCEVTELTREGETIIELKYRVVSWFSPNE

[7] = target: T3, human CD47 protein, His Tag …; assay: Biacore SPR, 25 C, antibody captured on CM5 chip
CD47 on Jurkat cells = target: T6, CD47 on Jurkat cells (UniProt Q08722 19-323, limits assumed); assay: flow cytometry on Jurkat cells, competition with Human-SIRPα-mFc
T6 construct: whole, on cells; Jurkat is a human T cell line
Description: The plate was incubated at room temperature for 1 h. After the plate was washed twice with PBS buffer, 100 μL of anti-CD47 chimeric antibodies (Table 7) was added to each well. 4-fold dilution was performed with PBS buffer from a starting concentration of 20 μg/mL, with 8 gradients obtained. The plate was incubated at room temperature for 1-2 h. […] The plate was incubated at room temperature for 1 h and washed 3 times with PBS buffer.

[8] = target: T3, human CD47 protein, His Tag …; assay: ELISA, CD47-His coated, competition with Human-SIRPα-mFc
Description: (§3) The plate was let stand at 2-8° C. overnight. The wells were aspirated to remove the coating buffer and blocked with 100 μL/well of a blocking solution (PBS with 1% (w/v) bovine serum albumin (BSA, Sigma, Cat. No. B2064-100G)) by incubation at 37° C. for 1 h. The 96-well plate was washed with a washing buffer (PBS with 0.01% (w/v) Tween 20 (Sigma, Cat. No. P9416-100ML)). […] After the 96-well plate was washed with PBS washing buffer, anti-CD47 chimeric antibodies or anti-CD47 humanized antibodies (see Table 8 for chimeric antibodies, and see Table 9 for humanized antibodies) were added. 4-fold dilution was performed with PBS buffer from a starting concentration of 20 μg/mL, with 8 gradients obtained. The plate was incubated at room temperature for 1.5 h. […] After the 96-well plate was washed with PBS buffer, 100 μL/well of a substrate solution TMB (TIANGEN, Cat. No. PA107-01) was added, and the plate was incubated at room temperature for color development for 10 min. 100 μL/well of 1 M H₂SO₄ was added to stop the reaction. Colorimetric signals were generated and read at 450 nm using a multifunctional microplate reader (manufacturer: PerkinElmer; model: EnVision). Data were analyzed using GraphPad Prism5, and EC₅₀ was calculated.

[9] = target: T3, human CD47 protein, His Tag …; assay: Biacore SPR, 25 C, antibody captured on CM5 chip; Biacore at 25 C; antibody captured on the chip, soluble CD47-His as analyte
[10] = target: T3, human CD47 protein, His Tag …; assay: ELISA, CD47-His coated, competition with Human-SIRPα-mFc; Blocking ELISA; CD47-His coated on plate, SIRPα-mFc bound first, antibody from 20 µg/mL, mouse Fc detected
Description: as §3

[11] = target: T5, cynomolgus/rhesus macaque CD47 protein, …; assay: Biacore SPR, 25 C, antibody captured on CM5 chip; remark: listed apart in the source
[12] = target: T3, human CD47 protein, His Tag …; assay: Biacore SPR, 25 C, antibody captured on CM5 chip; remark: listed apart in the source
[13] = target: T1, CD47 on the red cell surface; assay: flow cytometry on fixed red cells, antibody 1 µg/mL; remark: listed apart in the source
Description: as §1

[14] = target: T3, human CD47 protein, His Tag …; assay: ELISA, CD47-His coated, competition with Human-SIRPα-mFc; remark: listed apart in the source
Description: as §3

[15] = target: T3, human CD47 protein, His Tag …; assay: ELISA, plate coated with CD47-His; remark: listed apart in the source
Description: An ELISA binding assay was performed based on human CD47 protein and anti-CD47 chimeric antibodies or anti-CD47 humanized antibodies. […] The wells were aspirated, and non-specific binding sites were blocked by adding 100 L/well of a blocking solution (PBS with 1% (w/v) bovine serum albumin (BSA, Sigma, Cat. No. B2064-100G)) and incubating the plate at 37° C. for 1 h. After the 96-well plate was washed three times with a washing buffer (PBS with 0.01% (w/v) Tween 20 (Sigma, Cat. No. P9416-100ML)), 100 μL/well of 1:4 serial dilutions (from 30 g/mL) of anti-CD47 antibodies (see Table 3 for chimeric antibodies, and see Table 4 for humanized antibodies) in blocking solution were added, and the plate was incubated at room temperature for 2 h. […] After the 96-well plate was washed, 100 μL/well of a substrate solution TMB (TIANGEN, Cat. No. PA107-01) was added, and the 96-well plate was incubated at room temperature for 10 min. 100 μL/well of a stop solution (1 M H₂SO₄) was added to stop the reaction. Colorimetric signals were generated and read at 450 nm using a multifunctional microplate reader (manufacturer: PerkinElmer; model: EnVision). Data were analyzed using GraphPad Prism5, and EC₅₀ was calculated.

[16] = target: T1, CD47 on the red cell surface; assay: cell-based or functional assay
[17] = target: T4, human CD47 protein on CHO-K1-CD47 cells; assay: cell binding, CHO-K1-CD47 cells, high content imaging; remark: listed apart in the source
Description: as §2

[18] = target: T1, CD47 on the red cell surface; assay: flow cytometry on fixed red cells, antibody 10 µg/mL; remark: listed apart in the source
Description: as §1

CD47 on HL60 cells [19] = target: T2, CD47 on HL60 cells; assay: cell-based or functional assay; remark: listed apart in the source

Row | MFI [1] | rate of phagocytosis, antibody 1 µg/mL (CD47 on HL60 cells [2]) | rate of phagocytosis, antibody 10 µg/mL (CD47 on HL60 cells [2]) | MFI [3] | EC50 [4] | EC50 [5] | Kd [6] | Kd [7] | IC50 (CD47 on Jurkat cells) | IC50 [8] | also measured | Binder
1 | 608 MFI | 7.3% | 4.1% | 656 MFI | 0.349 µg/mL | 30.8 µg/mL | 1.2 nM | 7.48 nM | – | – | – | B1
2 | 61800 MFI | 65.7% | 59.8% | 36100 MFI | 1.11 µg/mL | 19.8 µg/mL | 1.04 nM | 0.767 nM | 0.358 µg/mL | 7.91 µg/mL | – | B2
3 | 5300 MFI | 7.1% | 3.5% | 952 MFI | – | – | 1.25 nM | – | 27 µg/mL | – | Kd [9]: 0.35 nM; IC50 [10]: 0.00468 µg/mL | B3
4 | 3320 MFI | 11.5% | 28.8% | 1310 MFI | 0.0879 µg/mL | 2.03 µg/mL | 2.92 nM | 9.06 nM | 4.86 µg/mL | 0.946 µg/mL | – | B4
5 | 32800 MFI | 54.2% | 44.7% | 26500 MFI | 0.273 µg/mL | 0.541 µg/mL | 1.58 nM | 2.35 nM | 1.28 µg/mL | 0.444 µg/mL | – | B5
6 | – | – | – | – | – | – | – | – | – | – | Kd [11]: 3.28 nM; Kd [12]: 6.28 nM; MFI [13]: 945 MFI; IC50 [14]: 15.2 µg/mL; EC50 [15]: 0.14 µg/mL; red cell agglutination, lowest concentration causing it [16]: 3.3 µg/mL; EC50 [17]: 5.88 µg/mL; MFI [18]: 5140 MFI; rate of phagocytosis, antibody 1 µg/mL (CD47 on HL60 cells [19]): 6.37%; rate of phagocytosis, antibody 10 µg/mL (CD47 on HL60 cells [19]): 24.2% | B6
7 | – | – | – | – | – | – | – | – | – | – | Kd [11]: 1.87 nM; Kd [12]: 7.13 nM; MFI [13]: 848 MFI; IC50 [14]: 2 µg/mL; EC50 [15]: 0.241 µg/mL; red cell agglutination, lowest concentration causing it [16]: 3.3 µg/mL; EC50 [17]: 40.5 µg/mL; MFI [18]: 3870 MFI; rate of phagocytosis, antibody 1 µg/mL (CD47 on HL60 cells [19]): 11.6%; rate of phagocytosis, antibody 10 µg/mL (CD47 on HL60 cells [19]): 4.7% | B7
